T1: topo VI H2TH-AAA (Methanosarcina mazei, UniProt Q8PUB7;Q8PUB8 1-369;1-621, R263A;K268A;K308A)
T1 sequence 1: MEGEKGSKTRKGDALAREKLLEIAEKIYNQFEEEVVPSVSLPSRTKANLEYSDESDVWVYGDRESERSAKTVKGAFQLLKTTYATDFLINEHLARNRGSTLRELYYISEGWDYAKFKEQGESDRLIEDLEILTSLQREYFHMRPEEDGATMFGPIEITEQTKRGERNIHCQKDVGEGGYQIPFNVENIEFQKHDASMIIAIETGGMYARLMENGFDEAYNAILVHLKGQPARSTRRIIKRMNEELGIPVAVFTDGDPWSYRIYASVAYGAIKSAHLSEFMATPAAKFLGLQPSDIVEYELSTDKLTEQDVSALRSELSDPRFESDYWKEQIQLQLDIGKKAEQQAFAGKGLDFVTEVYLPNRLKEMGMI
T1 sequence 2: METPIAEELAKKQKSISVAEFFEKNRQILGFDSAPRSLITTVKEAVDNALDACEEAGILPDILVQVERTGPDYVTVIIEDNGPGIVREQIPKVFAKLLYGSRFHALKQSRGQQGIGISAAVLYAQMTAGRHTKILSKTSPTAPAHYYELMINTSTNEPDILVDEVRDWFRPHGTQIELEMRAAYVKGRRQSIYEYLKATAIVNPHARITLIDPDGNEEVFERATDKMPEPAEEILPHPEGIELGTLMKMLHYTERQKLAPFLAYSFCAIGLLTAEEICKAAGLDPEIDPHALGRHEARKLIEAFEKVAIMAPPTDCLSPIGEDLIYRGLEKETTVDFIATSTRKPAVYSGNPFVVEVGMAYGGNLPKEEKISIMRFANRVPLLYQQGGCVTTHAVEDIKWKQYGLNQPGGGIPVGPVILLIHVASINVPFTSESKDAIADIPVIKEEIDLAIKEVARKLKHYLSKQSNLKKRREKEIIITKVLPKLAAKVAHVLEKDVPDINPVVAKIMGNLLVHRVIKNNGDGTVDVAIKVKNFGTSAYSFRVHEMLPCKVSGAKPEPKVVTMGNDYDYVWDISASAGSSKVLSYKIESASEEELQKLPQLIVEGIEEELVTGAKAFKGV

T2: topo VI holoenzyme WT (Methanosarcina mazei, UniProt Q8PUB7;Q8PUB8 1-369;1-621)
T2 sequence 1: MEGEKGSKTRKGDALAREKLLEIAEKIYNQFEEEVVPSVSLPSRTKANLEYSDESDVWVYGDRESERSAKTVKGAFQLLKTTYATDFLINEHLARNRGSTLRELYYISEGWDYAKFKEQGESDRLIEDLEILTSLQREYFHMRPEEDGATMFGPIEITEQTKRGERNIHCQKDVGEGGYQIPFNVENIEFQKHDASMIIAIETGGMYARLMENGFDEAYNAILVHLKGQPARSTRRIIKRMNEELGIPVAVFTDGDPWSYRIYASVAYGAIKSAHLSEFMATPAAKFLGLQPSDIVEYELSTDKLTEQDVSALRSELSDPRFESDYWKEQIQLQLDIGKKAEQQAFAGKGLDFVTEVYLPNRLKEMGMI
T2 sequence 2: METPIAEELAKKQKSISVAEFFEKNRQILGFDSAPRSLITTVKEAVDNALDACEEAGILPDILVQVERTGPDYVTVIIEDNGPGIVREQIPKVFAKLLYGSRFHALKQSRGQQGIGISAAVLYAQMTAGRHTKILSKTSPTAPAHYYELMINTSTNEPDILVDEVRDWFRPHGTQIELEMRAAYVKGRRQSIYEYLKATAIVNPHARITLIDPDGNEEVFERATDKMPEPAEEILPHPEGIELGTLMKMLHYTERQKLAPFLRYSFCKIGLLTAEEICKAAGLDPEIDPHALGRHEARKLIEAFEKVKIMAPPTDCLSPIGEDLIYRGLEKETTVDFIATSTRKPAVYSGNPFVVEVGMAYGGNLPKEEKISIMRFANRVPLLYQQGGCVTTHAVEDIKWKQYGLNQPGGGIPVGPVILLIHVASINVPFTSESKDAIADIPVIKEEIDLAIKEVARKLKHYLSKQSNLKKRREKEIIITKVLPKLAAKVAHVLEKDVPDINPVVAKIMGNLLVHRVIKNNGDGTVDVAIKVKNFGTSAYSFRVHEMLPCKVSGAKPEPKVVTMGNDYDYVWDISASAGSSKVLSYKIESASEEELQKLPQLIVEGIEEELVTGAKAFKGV

T3: topo VI KGRR-AAA (Methanosarcina mazei, UniProt Q8PUB7;Q8PUB8 1-369;1-621, K186A;R188A;R189A)
T3 sequence 1: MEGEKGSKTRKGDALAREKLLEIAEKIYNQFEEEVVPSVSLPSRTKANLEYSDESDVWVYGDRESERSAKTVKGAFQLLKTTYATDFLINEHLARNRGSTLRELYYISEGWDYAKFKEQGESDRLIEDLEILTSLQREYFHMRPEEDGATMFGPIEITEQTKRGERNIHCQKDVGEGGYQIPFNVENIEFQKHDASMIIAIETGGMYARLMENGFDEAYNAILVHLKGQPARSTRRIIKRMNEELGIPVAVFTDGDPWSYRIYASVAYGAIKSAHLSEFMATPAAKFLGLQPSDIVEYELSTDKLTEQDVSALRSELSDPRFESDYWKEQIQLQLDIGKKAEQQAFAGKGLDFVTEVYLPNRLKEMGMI
T3 sequence 2: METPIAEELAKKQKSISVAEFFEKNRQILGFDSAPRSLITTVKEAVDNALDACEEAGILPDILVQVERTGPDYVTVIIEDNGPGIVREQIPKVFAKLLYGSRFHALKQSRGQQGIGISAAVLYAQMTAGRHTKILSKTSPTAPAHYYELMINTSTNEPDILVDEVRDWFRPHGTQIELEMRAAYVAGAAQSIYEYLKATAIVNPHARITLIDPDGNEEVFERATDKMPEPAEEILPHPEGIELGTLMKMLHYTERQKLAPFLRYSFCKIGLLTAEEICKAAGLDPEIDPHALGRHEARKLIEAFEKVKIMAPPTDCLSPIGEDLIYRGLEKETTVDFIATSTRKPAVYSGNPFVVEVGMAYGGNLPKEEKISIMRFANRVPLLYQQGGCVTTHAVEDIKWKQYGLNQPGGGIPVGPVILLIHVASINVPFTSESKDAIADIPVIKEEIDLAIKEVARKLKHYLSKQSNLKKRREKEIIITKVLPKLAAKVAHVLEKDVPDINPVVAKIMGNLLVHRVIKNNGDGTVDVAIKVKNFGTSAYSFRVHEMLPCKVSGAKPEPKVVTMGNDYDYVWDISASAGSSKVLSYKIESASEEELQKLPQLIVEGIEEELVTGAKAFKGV


Assays:
Experiment in all cases: fluorescence anisotropy; Fluorescence anisotropy, 20 nM FAM-labelled DNA, topo VI 0 and 3.9-4000 nM, no nucleotide; buffer, salt, pH and temperature not given in supplied text
topo VI H2TH-AAA = molecular target: T1, topo VI H2TH-AAA; conditions: protein: recombinant, tags: N-terminal His6-TEV on Top6B, removed, chain copies: 2;2
topo VI holoenzyme WT = molecular target: T2, topo VI holoenzyme WT; conditions: protein: recombinant, tags: N-terminal His6-TEV on Top6B, removed, chain copies: 2;2
topo VI KGRR-AAA = molecular target: T3, topo VI KGRR-AAA; conditions: protein: recombinant; tags: N-terminal His6-TEV on Top6B, removed; chain copies: 2;2; label: 5'-FAM strand 1; blunt
[1] = label: 5'-FAM strand 2, four-way Holliday junction, stacked-X, two GAAA-capped arms

Row | Binder | Kd (topo VI H2TH-AAA; label: 5'-FAM strand 1, blunt) [µM] | Kd (topo VI holoenzyme WT; label: 5'-FAM strand 1, blunt) [µM] | Kd (topo VI KGRR-AAA) [µM] | Kd (topo VI H2TH-AAA; [1]) [µM] | Kd (topo VI holoenzyme WT; [1]) [µM]
1 | 20 bp duplex (dsDNA) DNA 1: CGGAAGAGTATGAGTATTCG DNA 2: CGAATACTCATACTCTTCCG | 0.505 ± 0.022 | 0.427 ± 0.016 | 0.338 ± 0.011 | – | –
2 | 16 x 20 bp stacked junction (structured_DNA) DNA 1: CGAATACTCAGCTCAACCGAAAGGTTGAGCCTTCGCTCGAAAGAGCGAAGTACTCTTCCG DNA 2: CGGAAGAGTATGAGTATTCG | – | – | – | 0.181 ± 0.008 | 0.122 ± 0.004
3 | 30 bp duplex (dsDNA) DNA 1: CAAAAAGGAAGAGTATGAGTATTCAACATC DNA 2: GATGTTGAATACTCATACTCTTCCTTTTTG | 0.094 ± 0.004 | 0.084 ± 0.006 | 0.065 ± 0.004 | – | –
4 | 40 bp duplex (dsDNA) DNA 1: CTATTGAAAAAGGAAGAGTATGAGTATTCAACATTTCCGC DNA 2: GCGGAAATGTTGAATACTCATACTCTTCCTTTTTCAATAG | 0.058 ± 0.003 | 0.049 ± 0.003 | 0.067 ± 0.004 | – | –
5 | 60 bp duplex (dsDNA) DNA 1: CGCTTCAATAATATTGAAAAAGGAAGAGTATGAGTATTCAACATTTCCGTGTCGCCCTTC DNA 2: GAAGGGCGACACGGAAATGTTGAATACTCATACTCTTCCTTTTTCAATATTATTGAAGCG | 0.167 ± 0.009 | 0.038 ± 0.002 | 0.099 ± 0.002 | – | –
6 | 70 bp duplex (dsDNA) DNA 1: CCAAATGCTTCAATAATATTGAAAAAGGAAGAGTATGAGTATTCAACATTTCCGTGTCGCCCTTATTCCC DNA 2: GGGAATAAGGGCGACACGGAAATGTTGAATACTCATACTCTTCCTTTTTCAATATTATTGAAGCATTTGG | 0.18 ± 0.012 | 0.062 ± 0.004 | 0.124 ± 0.006 | – | –

From paper PMC5922973, “Topoisomerase VI senses and exploits both DNA crossings and bends to facilitate strand passage” (eLife, 2018)
